In PMC9482650, “Quantitative fragmentomics allow affinity mapping of interactomes” (Nature Communications, 2022):

T1: GRIP1_3, Q9Y3R0
T1 sequence (Q9Y3R0 247-346, limits assumed, looked up): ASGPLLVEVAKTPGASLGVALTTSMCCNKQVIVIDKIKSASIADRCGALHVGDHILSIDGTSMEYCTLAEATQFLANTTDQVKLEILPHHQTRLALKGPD

T2: SYNJ2BP, P57105
T2 sequence (P57105 8-110, limits assumed, looked up): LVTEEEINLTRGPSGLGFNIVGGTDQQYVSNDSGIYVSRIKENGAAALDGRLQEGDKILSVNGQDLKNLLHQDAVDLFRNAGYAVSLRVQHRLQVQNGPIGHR

T3: RHPN1, Q8TCX5
T3 sequence (Q8TCX5 508-602, limits assumed, looked up): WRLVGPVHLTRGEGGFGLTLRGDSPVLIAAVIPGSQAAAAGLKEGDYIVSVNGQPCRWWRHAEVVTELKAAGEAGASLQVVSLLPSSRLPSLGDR

T4: SNTA1, Q13424
T4 sequence (Q13424 82-180, limits assumed, looked up): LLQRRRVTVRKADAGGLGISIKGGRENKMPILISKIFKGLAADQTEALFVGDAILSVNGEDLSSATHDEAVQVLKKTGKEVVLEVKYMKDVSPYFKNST

T5: DLG3_1, Q92796
T5 sequence (Q92796 125-227, limits assumed, looked up): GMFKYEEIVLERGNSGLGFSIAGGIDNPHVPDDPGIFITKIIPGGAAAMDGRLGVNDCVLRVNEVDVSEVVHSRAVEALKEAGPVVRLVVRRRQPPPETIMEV

T6: NHERF3_3, Q5T2W1
T6 sequence (Q5T2W1 238-333, limits assumed, looked up): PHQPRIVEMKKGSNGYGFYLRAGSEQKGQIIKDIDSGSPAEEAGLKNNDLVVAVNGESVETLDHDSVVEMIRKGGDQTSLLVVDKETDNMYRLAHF

T7: PCLO, Q9Y6V0
T7 sequence (Q9Y6V0 4491-4600, limits assumed, looked up): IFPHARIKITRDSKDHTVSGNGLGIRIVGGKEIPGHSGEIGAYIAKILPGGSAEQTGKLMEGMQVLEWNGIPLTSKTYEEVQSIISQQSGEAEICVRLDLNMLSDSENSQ

T8: MPP7, Q5T2T1
T8 sequence (Q5T2T1 134-230, limits assumed, looked up): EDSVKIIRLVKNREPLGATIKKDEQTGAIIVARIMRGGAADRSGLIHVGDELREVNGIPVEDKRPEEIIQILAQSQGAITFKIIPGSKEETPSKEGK

T9: DVL3, Q92997
T9 sequence (Q92997 244-331, limits assumed, looked up): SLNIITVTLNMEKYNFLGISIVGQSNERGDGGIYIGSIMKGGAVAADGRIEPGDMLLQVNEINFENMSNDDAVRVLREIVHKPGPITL

T10: GRIP1_7, Q9Y3R0
T10 sequence (Q9Y3R0 999-1096, limits assumed, looked up): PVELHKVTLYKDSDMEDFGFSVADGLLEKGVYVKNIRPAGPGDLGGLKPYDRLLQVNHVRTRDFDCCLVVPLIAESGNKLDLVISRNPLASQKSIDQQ

T11: TX1BP3, O14907
T11 sequence (O14907 10-122, limits assumed, looked up): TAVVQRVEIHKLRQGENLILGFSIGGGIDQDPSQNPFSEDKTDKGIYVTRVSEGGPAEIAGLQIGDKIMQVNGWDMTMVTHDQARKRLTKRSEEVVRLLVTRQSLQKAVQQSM

T12: NHERF3_4, Q5T2W1
T12 sequence (Q5T2W1 373-468, limits assumed, looked up): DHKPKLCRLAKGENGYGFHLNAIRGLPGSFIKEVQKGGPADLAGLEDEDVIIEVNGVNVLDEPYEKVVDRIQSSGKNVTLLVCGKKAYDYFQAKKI

T13: LRRC7, Q96NW7
T13 sequence (Q96NW7 1440-1537, limits assumed, looked up): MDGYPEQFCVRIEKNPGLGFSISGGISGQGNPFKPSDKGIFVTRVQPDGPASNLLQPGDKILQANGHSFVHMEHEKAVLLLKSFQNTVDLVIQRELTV


Key:
Test in all cases: holdup assay
Set-up in all cases: key: below the threshold = too weak to quantify, mostly under pKd 3.1 to 4
Conditions in all cases: plain residues with an end cap or a label only (N-terminal biotin on a linker: ado-ado)
GRIP1_3, Q9Y3R0 = target: T1, GRIP1_3, Q9Y3R0
SYNJ2BP, P57105 = target: T2, SYNJ2BP, P57105
Inadl_5, Q8NI35 = target: Inadl_5, Q8NI35
Inadl_5, Q8NI35, sequence (Q8NI35 673-780): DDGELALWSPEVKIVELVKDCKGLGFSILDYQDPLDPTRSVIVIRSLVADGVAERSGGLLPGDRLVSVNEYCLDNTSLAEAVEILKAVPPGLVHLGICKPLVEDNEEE

RHPN1, Q8TCX5 = target: T3, RHPN1, Q8TCX5
MAST1, Q9Y2H9 = target: MAST1, Q9Y2H9
MAST1, Q9Y2H9, sequence (Q9Y2H9 962-1065): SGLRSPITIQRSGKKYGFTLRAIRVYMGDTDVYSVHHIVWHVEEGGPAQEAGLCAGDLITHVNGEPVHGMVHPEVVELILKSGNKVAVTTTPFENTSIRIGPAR

SNTA1, Q13424 = target: T4, SNTA1, Q13424
PDZRN4_1, Q6ZMN7 = target: PDZRN4_1, Q6ZMN7
PDZRN4_1, Q6ZMN7, sequence (Q6ZMN7 213-318): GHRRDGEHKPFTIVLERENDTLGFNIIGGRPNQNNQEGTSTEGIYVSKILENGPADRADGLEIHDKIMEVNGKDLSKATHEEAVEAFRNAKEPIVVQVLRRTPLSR

MAGI2_4, Q86UL8 = target: MAGI2_4, Q86UL8
MAGI2_4, Q86UL8, sequence (Q86UL8 772-865): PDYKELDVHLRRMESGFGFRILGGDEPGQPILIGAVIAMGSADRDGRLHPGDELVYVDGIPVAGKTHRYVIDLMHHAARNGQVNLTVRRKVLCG

DLG3_1, Q92796 = target: T5, DLG3_1, Q92796
NHERF3_3, Q5T2W1 = target: T6, NHERF3_3, Q5T2W1
PCLO, Q9Y6V0 = target: T7, PCLO, Q9Y6V0
GRID2IP_2, A4D2P6 = target: GRID2IP_2, A4D2P6
GRID2IP_2, A4D2P6, sequence (A4D2P6 272-370): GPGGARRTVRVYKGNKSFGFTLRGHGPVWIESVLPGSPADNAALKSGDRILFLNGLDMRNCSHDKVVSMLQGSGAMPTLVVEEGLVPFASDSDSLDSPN

MPP7, Q5T2T1 = target: T8, MPP7, Q5T2T1
DVL3, Q92997 = target: T9, DVL3, Q92997
GRIP1_7, Q9Y3R0 = target: T10, GRIP1_7, Q9Y3R0
TX1BP3, O14907 = target: T11, TX1BP3, O14907
LIMK2, P53671 = target: LIMK2, P53671
LIMK2, P53671, sequence (P53671 143-248): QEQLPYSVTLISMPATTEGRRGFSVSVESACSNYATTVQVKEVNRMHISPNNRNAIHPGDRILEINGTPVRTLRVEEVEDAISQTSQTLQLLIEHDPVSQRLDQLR

GRIP2_7, Q9C0E4 = target: GRIP2_7, Q9C0E4
GRIP2_7, Q9C0E4, sequence (Q9C0E4 934-1023): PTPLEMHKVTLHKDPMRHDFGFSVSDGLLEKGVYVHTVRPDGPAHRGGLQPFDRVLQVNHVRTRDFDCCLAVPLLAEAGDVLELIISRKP

NHERF3_4, Q5T2W1 = target: T12, NHERF3_4, Q5T2W1
DLG2_3, Q15700 = target: DLG2_3, Q15700
DLG1_3, Q12959 = target: DLG1_3, Q12959
DLG1_3, Q12959, sequence (Q12959 457-571): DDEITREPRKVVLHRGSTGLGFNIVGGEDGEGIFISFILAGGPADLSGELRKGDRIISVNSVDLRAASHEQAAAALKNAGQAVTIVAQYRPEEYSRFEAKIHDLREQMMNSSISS

HTRA1, Q92743 = target: HTRA1, Q92743
HTRA1, Q92743, sequence (Q92743 360-477): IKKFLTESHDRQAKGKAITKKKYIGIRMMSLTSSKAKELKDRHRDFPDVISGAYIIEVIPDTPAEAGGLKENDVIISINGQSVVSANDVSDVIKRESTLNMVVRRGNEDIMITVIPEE

LRRC7, Q96NW7 = target: T13, LRRC7, Q96NW7

Binder	pKd (GRIP1_3, Q9Y3R0)	pKd (SYNJ2BP, P57105)	pKd (Inadl_5, Q8NI35)	pKd (RHPN1, Q8TCX5)	pKd (MAST1, Q9Y2H9)	pKd (SNTA1, Q13424)	pKd (PDZRN4_1, Q6ZMN7)	pKd (MAGI2_4, Q86UL8)	pKd (DLG3_1, Q92796)	pKd (NHERF3_3, Q5T2W1)	pKd (PCLO, Q9Y6V0)	pKd (GRID2IP_2, A4D2P6)	pKd (MPP7, Q5T2T1)	pKd (DVL3, Q92997)	pKd (GRIP1_7, Q9Y3R0)	pKd (TX1BP3, O14907)	pKd (LIMK2, P53671)	pKd (GRIP2_7, Q9C0E4)	pKd (NHERF3_4, Q5T2W1)	pKd (DLG2_3, Q15700)	also measured
HLSTRQGTCV [ATRNL1, Q5VV63]	below the threshold	5.37	4.04	3.65	4.35	3.67	3.76	4.97	3.84	below the threshold	below the threshold	4.05	below the threshold	below the threshold	below the threshold	below the threshold	below the threshold	below the threshold	below the threshold	4.19	pKd (DLG1_3, Q12959): 3.58; pKd (HTRA1, Q92743): 4.91; pKd (LRRC7, Q96NW7): 3.63
HYPASPDSWV [CTNND2, Q9UQB3]	below the threshold	5.07	3.64	4.42	3.9	4.17	4.14	4.34	3.99	below the threshold	below the threshold	below the threshold	below the threshold	4.04	3.75	5.15	below the threshold	3.95	below the threshold	below the threshold	pKd (DLG1_3, Q12959): below the threshold; pKd (HTRA1, Q92743): 4.71; pKd (LRRC7, Q96NW7): 4.97
VCMGDHWFDV [PRKN, O60260]	below the threshold	below the threshold	below the threshold	below the threshold	below the threshold	below the threshold	below the threshold	4.04	below the threshold	below the threshold	below the threshold	below the threshold	4.85	3.59	3.56	3.77	below the threshold	4.36	below the threshold	below the threshold	pKd (DLG1_3, Q12959): below the threshold; pKd (HTRA1, Q92743): 4.96; pKd (LRRC7, Q96NW7): 3.75
